The results in this text go back to publication PMC8409985.

The target in the test is truncated human ACE2 ectodomain (residues 19–613) with C-terminal AVI-tag and 6xHis-tag, biotinylated (human) (UniProt Q9BYF1). The test is described as follows: BLI.

“SARS-CoV-2 RBD variant N439K (from UniProt P0DTC2 319-541) (domain or fragment)” showed a t1/2 of 1.85 min. Then “SARS-CoV-2 RBD variant N501Y (from UniProt P0DTC2 319-541) (domain or fragment)”, with 5.49 min.
